In patent publication US20040248211A1, “ICAM-related protein” (priority 1992, published 2004):

Experiments:
[1] = biological target: T1, ICAM-R on PBL (Homo sapiens, UniProt P32942); test: FACS-based competition assay; format: binding; settings: 5 μg antibody; equivalent on SKW3
T1 construct: endogenous in cells; host or cells: human peripheral blood leukocytes
T1 sequence (P32942 30-547): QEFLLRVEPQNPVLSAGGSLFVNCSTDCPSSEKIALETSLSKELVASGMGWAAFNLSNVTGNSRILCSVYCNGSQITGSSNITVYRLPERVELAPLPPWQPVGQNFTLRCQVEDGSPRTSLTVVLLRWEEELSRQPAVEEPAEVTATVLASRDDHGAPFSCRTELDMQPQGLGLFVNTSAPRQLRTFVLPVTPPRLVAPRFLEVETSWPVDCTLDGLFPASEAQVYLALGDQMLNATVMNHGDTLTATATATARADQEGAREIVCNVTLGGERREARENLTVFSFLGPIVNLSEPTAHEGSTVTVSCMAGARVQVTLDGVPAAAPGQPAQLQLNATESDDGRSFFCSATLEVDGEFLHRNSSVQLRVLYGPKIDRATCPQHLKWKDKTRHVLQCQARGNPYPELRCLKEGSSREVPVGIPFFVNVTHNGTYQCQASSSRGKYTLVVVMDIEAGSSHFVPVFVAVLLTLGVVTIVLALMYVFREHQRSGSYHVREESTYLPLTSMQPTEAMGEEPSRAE
Procedure: In the assays, human peripheral blood leukocytes (PBL) obtained by Ficoll Hypaque centrifugation of normal peripheral blood were washed twice in ice cold FACS buffer (PBS containing 0.1% sodium azide and 1% bovine serum albumin) and 2×10^5 cells were incubated in triplicate polypropylene tubes with 5 μg of each of the following antibodies ICR-1.1, ICR-4.2, and control isotype IgG (Sigma). All tubes containing the first stage antibodies were then incubated for 30 minutes at 4° C. and washed twice in cold FACS buffer. To each triplicate tube, 5 μg of each of the following second stage antibodies were added: biotinylated-ICR-1.1, biotinylated-ICR-4.2, biotinylated-anti-rat CD4 (negative control). All second stage antibodies were bibtinylated according to standard procedures as described in Example 12 and all tubes were then incubated for an additional 30 minutes at 4° C. before washing twice in FACS buffer. […] Finally, all tubes were washed twice in FACS buffer and analyzed by flow cytometry (FACScan, Becton-Dickinson).
SKW3 cells were labelled with either 1 μg of antibody ICR-1.1 or ICR-4.2, washed in FACS buffer and incubated with 1 μg biotinylated-ICR-1.1 or biotinylated ICR-4.2. All tubes were then washed in FACS buffer, incubated with Strepavidin-phycoerythrin for an additional 30 minutes at 4° C. and analyzed by FACScan.

[2] = biological target: T2, ICAM-1 (Homo sapiens, UniProt P05362); test: FACS binding to COS cell transfectants; settings: antibody 5.0 ug/ml
T2 construct: express the full length ICAM-1 and ICAM-R proteins, respectively; expressed in transfected cells; host or cells: COS cells, DEAE-dextran, plasmid pcDNA1AmpICAM-1
T2 sequence (P05362 28-532): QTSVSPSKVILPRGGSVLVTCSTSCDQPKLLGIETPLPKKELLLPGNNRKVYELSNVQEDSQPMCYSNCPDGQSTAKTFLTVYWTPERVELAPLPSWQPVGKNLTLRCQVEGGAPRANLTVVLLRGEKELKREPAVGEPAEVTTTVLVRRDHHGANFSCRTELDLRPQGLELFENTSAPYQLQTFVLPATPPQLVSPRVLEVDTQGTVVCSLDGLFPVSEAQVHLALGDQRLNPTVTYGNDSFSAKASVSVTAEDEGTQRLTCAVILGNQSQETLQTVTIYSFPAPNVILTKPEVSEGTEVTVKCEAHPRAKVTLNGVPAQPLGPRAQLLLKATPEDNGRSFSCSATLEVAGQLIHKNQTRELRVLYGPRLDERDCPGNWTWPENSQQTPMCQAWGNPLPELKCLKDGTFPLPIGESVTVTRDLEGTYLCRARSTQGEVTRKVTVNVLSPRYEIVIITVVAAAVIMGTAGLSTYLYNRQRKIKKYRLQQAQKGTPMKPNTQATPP
Procedure: For the anti-ICAM-R monoclonal antibody binding assay, COS cells transfected with constructs encoding the ICAM-R chimeric proteins or control constructs were removed from the plates by EDTA treatment and aliquoted at 2.5×10^5 cells per well in a 96-well round bottom plate. Cells were washed 3 times with ice cold washing buffer (PBS containing 1% BSA and 0.05% sodium azide). Anti-ICAM-R monoclonal antibody was applied at 5.0 ug/ml in 50 ul final volume and incubated on ice for 30 minutes. Cells were then washed three times with cold washing buffer and incubated with the FITC labeled secondary antibody (sheep anti-mouse IgG F(ab′)2) at a 1:100 dilution on ice for 30 minutes in dark in 50 ul final volume. After the incubation, cells were washed again for three times in the ice cold washing buffer and resuspended in 200 ul of 1% paraformaldehyde. The samples were analyzed on a Becton-Dickinson FACScan instrument. Results of the assay are given below in Table 5 as percent positive COS cell transfectants, wherein MOPC 21 (IgG1) and UPC 10 (IgG2a) are isotype matched controls, 18E3D is an ICAM-1 specific monoclonal antibody and ICR-1.1 to ICR-9.2 are ICAM-R specific monoclonal antibodies. The reactivities of monoclonal antibodies ICR-1.1 through ICR-9.2 were assayed in a different experiment than monoclonal antibodies ICR-12.1 through ICR-17.1.

[3] = system: CEM cells; test: Detergent resistance (cytoskeleton association) assay, CEM; format: cell-based, human
Procedure: PBL or washed CEM cell suspensions ([…]) were dispensed into Falcon 12×75 mm tubes in ice-cold PBS-5% FBS, pelleted, and resuspended in 50 μl of FITC-conjugated anti-ICAM-R monoclonal antibody 26E3D-1 or 26I10E-2 adjusted to saturating concentration in the same buffer. Antibody binding was permitted to proceed for 30 minutes on ice, afterwhich unbound antibody was removed by pelleting cells which had first been resuspended in 1 ml of […] through an underlaid cushion (0.7 ml) of neat (undiluted) FBS.
For groups stained with FITC-conjugated monoclonal antibody only, the 1 ml suspension was divided into two equal parts, each of which was separately underlaid with FBS, centrifuged, and the supernatant removed by aspiration. Cell pellets were then resuspended in 200 ul of control buffer (13 mM Tris pH 8.0, 150 mM NaCl, 2 mM MgCl2, 2 mM EGTA, 2% FBS, 2.5 ug/ml aprotinin, 1 mM PMSF, 10 mM iodoacetamide) or detergent buffer [0.5% NP-40 (v/v) (US Biochemical, Cleveland, Ohio) in control buffer] and held for 20 minutes at room temperature, or overnight at 4° C., prior to FACS analysis. For groups in which cell surface-bound monoclonal antibody was crosslinked with secondary antibodies, following the first antibody staining step, washed cell pellets were resuspended in 50 ul of FITC-goat anti-mouse IgG (Sigma) diluted 1:100 in PBS-5% FCS and incubated for 30 minutes on ice. […]

[4] = system: Jurkat T leukemic cells; test: F-actin and G-actin cell content; format: cell-based, human
Procedure: Cellular shape changes (such as cell spreading) as well as T-cell activation are associated with changes in the cytoskeletal actin network manifested by alteration of the ratio of globular actin (G-actin) to filamentous actin (F-actin). To test whether the engagement by ICAM-R antibodies of ICAM-R expressed on Jurkat T leukemic cells would induce changes in cellular actin ratios, studies measuring F-actin and G-actin cell content were carried out by methods known in the art.

B1: ICR-1.1: anti-ICAM-R monoclonal antibody, IgG2a, domain 1, ATCC HB 11053 (antibody, V domains shown)
VH: QVQLQQSGAELAKPGASVKMSCKASGYTFTVYWMHWVKQRPGQGLEWIGYINPNTDYTEYNQRFQDKATLTADKSSSTAYMQLSSLTSEDSAVYYCARWGGNSYGLDYWGQGTSVTVSS
VL: QIVLTQSPALMSASPGEKVTMTCSASSSVSYIYWYQQKPRSSPKPWIYLTSNLASGVPARFSGSGSGASYSLTISIMEAEDAATYYCQQWKSIPLTFGAGTKLELK
blocking of biotinylated-ICR-1.1 binding [1]: did block binding of biotinylated-ICR-1.1 | blocking of biotinylated-ICR-4.2 binding [1]: did not block binding of monoclonal antibody ICR-4.2 | percent positive COS cell transfectants, ICAM-1 [2]: 2.43% | greater increase in detergent resistance, crosslinked antibody ([3]; CEM): 2-3 fold | ICAM-R association with cytoskeleton (detergent resistance), antibody alone ([3]; FITC-conjugated antibody, similar in PBL): negligible | time to peak F-actin content ([4]; OKT3 plus gam, ICR-1.1 without gam): ≤ 60 min | F-actin content ([4]; OKT3 plus goat anti-mouse crosslinker (gam), ICR-1.1 without gam): slight transient increase in F-actin content | cellular G-actin ([4]; with gam crosslinker): gradual decrease in cellular G-actin | rise of F-actin content ([4]; with gam crosslinker, prolonged plateau): 75-100%
